Tests used:
[1] = molecular target: Family 2B encapsulin from S. griseus (Q54255), expressed in S. coelicolor (S. griseus); test: cryo-EM 2D class averages
[2] = molecular target: Family 2B encapsulin from S. griseus, expressed in E. coli (S. griseus); test: cryo-EM 2D class averages

Row | Substance | percent of particles with cargo [1] [%] | percent of encapsulins with apparent cargo [2] [%]
1 | cargo protein of the encapsulin (A0A2X2LWM5), expressed in S. coelicolor (natural protein) | 96 | –
2 | cargo protein of the Family 2B encapsulin from S. griseus, expressed in E. coli (natural protein) | – | 34

Reference: publication PMC9309400
